Target: rabbit GH receptor (rabbit) (UniProt P19941)
Assay: cell-based or functional assay

UniProt P19941, sequence (P19941 19-638): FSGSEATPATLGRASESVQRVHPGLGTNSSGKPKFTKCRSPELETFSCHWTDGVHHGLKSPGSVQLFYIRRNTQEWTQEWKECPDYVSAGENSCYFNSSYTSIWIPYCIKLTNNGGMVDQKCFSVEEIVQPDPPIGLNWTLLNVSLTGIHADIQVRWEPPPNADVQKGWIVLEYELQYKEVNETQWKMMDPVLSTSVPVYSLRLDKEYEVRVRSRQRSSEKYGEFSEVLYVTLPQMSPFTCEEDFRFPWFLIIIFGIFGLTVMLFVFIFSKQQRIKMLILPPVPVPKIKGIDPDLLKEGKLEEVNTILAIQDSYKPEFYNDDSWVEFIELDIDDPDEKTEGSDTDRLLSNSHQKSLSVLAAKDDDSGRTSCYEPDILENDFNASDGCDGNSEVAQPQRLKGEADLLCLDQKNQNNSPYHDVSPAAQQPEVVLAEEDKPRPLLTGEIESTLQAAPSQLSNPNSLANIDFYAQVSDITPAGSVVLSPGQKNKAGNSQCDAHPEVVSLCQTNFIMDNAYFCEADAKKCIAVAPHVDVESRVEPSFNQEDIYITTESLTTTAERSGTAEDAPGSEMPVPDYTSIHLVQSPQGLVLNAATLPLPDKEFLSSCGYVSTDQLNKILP

Mean EC50 (nM), proliferation of GH-R4 cells: 0.036 nM
Mean EC50 (ng/ml), proliferation of GH-R4 cells: 0.8 ng/mL
Substance: human pituitary GH standard (from UniProt P01241 27-217) (ligand)

Source: patent publication US7754855
